According to US20210115121A1:

Experiments:
Experiment in all cases: cell-based or functional assay
[1] = molecular target: Tau from human Alzheimer's disease brain (isolated Tau PHF fibrils from Alzheimer's disease patients) (human) (UniProt P10636)
[2] = molecular target: Tau from human frontotemporal dementia brain (human) (UniProt P10636)
[3] = molecular target: Tau from human progressive supranuclear palsy brain (human) (UniProt P10636)
[4] = molecular target: human Tau P301S from brain of P301S Tau transgenic mice (human) (UniProt P10636)
Chain of human Tau P301S from brain of P301S Tau transgenic mice (human) (P10636 other isoform, or with tags, fused parts or gaps P301S P301S P301S P301S): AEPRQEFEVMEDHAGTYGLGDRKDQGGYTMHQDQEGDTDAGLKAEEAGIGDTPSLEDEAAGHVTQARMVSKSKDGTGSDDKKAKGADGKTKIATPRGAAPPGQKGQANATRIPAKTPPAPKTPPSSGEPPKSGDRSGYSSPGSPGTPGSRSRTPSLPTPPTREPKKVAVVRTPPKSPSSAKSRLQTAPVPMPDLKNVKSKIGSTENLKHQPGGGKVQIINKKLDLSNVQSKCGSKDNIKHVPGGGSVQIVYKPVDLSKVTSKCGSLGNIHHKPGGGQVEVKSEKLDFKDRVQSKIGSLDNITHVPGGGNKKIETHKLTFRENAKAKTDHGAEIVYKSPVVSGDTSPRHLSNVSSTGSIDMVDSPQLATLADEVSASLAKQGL

[5] = molecular target: human Tau P301L from brain of P301L Tau transgenic mice (human) (UniProt P10636)
Chain of human Tau P301L from brain of P301L Tau transgenic mice (human) (P10636 other isoform, or with tags, fused parts or gaps P301L P301L P301L P301L limits assumed): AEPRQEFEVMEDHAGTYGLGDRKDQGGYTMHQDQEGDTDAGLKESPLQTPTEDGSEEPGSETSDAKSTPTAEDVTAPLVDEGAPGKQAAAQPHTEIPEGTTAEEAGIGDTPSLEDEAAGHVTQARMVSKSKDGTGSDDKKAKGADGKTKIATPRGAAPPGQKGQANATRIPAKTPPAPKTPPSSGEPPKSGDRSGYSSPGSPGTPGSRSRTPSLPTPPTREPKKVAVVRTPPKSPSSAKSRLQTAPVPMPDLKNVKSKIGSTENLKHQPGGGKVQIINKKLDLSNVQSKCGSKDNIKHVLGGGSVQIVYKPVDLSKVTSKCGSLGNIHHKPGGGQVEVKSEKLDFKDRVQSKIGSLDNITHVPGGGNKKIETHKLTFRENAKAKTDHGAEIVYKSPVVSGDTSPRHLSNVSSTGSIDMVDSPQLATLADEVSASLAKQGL

Chain of HJ8.5 of WO 2014/008404 (antibody) (VH): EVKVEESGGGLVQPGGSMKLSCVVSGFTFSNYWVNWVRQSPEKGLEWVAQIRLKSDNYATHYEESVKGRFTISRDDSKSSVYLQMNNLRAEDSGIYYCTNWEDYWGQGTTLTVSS
Chain of HJ8.5 of WO 2014/008404 (antibody) (VL): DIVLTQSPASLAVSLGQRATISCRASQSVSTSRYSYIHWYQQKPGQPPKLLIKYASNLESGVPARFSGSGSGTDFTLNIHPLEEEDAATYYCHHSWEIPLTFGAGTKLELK
Chain of Tau from human progressive supranuclear palsy brain (human) (P10636 other isoform, or with tags, fused parts or gaps limits assumed): as the sequence (P10636 other isoform, or with tags, fused parts or gaps P301L P301L P301L P301L limits assumed) above, with L300P counted along it
Chain of Tau from human frontotemporal dementia brain (human) (P10636 other isoform, or with tags, fused parts or gaps limits assumed): as the sequence (P10636 other isoform, or with tags, fused parts or gaps P301L P301L P301L P301L limits assumed) above, with L300P counted along it
Chain of Tau from human Alzheimer's disease brain (isolated Tau PHF fibrils from Alzheimer's disease patients) (human) (P10636 other isoform, or with tags, fused parts or gaps limits assumed): as the sequence (P10636 other isoform, or with tags, fused parts or gaps P301L P301L P301L P301L limits assumed) above, with L300P counted along it
Chain of IPN002 of WO2014/028777A2 (antibody) (VH): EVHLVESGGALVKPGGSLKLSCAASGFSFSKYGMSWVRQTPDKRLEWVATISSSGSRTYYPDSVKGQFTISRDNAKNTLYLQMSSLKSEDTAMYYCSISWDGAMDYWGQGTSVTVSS
Chain of IPN002 of WO2014/028777A2 (antibody) (VL): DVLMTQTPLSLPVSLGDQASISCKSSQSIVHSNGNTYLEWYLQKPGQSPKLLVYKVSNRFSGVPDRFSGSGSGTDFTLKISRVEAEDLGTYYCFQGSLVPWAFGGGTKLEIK

Row | Imax (maximal efficacy at 300 nM, cellular Tau aggregation assay) [1] [%] | Imax (maximal efficacy at 300 nM, cellular Tau aggregation assay) [2] [%] | IC50 (cellular Tau aggregation assay) [3] [µM] | Imax (maximal efficacy at 300 nM, cellular Tau aggregation assay) [3] [%] | Imax (maximal efficacy at 300 nM, cellular Tau aggregation assay) [4] [%] | IC50 (cellular Tau aggregation assay) [1] [µM] | IC50 (cellular Tau aggregation assay) [2] [µM] | IC50 (cellular Tau aggregation assay) [5] [µM] | Imax (maximal efficacy at 300 nM, cellular Tau aggregation assay) [5] [%] | IC50 (cellular Tau aggregation assay) [4] [µM] | Substance
1 | 46 | 67 | 0.073 | 79 | 43 | – | – | – | – | – | HJ8.5 of WO 2014/008404 (antibody)
2 | 69 | 80 | 0.047 | 55 | 56 | 0.032 | 0.001 | 0.026 | 69 | 0.35 | PT3 of WO2013/096380A2 (antibody)
3 | 19 | 50 | 0.207 | 64 | 22 | – | – | 0.122 | 73 | – | IPN002 of WO2014/028777A2 (antibody)
